The results in this text go back to patent WO2021237516A1 (dated 2021).

Experiment [1] has as its target SARS-CoV-2 S1 (SARS-CoV-2, UniProt P0DTC2 16-685).
In experiment [2] the target is SARS-CoV S1 (SARS-CoV, UniProt P59594 14-667). As to the kind of experiment: competition ELISA as in Example 3.2: blocking of SARS-CoV S1 binding to hACE2.

B1: Ab2001.16 (bispecific antibody, V domains shown)
VH 1: EVQLVESGGGLVQPGGSLRLSCAASGFSFSNSDMHWVRQATGKGLEWVSAIGDSGDTYYSDSVKGRFTISRENAKSSLYLQMNSLRAEDTAVYYCARAANWGWDWYFDLWGRGTLVTVSS
VH 2: EVQLVETGGGLIQPGGSLRLSCAASGFTVSSNYMSWVRQAPGKGLEWVSVIYSGGSTYYADSVKGRFTISRDNSKNTLYLQMNSLRAEDTAVYYCARDAGPYGMDVWGQGTTVTVSS
VL: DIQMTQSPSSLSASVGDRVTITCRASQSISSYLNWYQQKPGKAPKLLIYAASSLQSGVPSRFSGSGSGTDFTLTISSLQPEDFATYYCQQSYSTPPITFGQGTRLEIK
B1 yielded a Kd in experiment [1] of 2.39 nM. This counts as single-digit nanomolar.

B2: Ab2001.11 (antibody, V domains shown)
VH: EVQLVESGGGLVQPGGSLRLSCAASGFSFSNSDMHWVRQATGKGLEWVSAIGDSGDTYYSDSVKGRFTISRENAKSSLYLQMNSLRAEDTAVYYCARAANWGWDWYFDLWGRGTLVTVSS
VL: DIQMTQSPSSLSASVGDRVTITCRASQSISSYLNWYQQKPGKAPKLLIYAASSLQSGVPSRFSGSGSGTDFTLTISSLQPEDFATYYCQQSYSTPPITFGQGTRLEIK
As to B2, the concentration for half-maximal inhibition (IC50) in experiment [2] came to 304 nM. This lies in the sub-micromolar range.

B3: Ab2001.08 (antibody, V domains shown)
VH: QVQLVQSGAEVKKPGSSVKVSCKASGGTFSSYAISWVRQAPGQGLEWMGRIIPIFGTANYAQKFQGRVTITADESTSTAYMELSSLRSEDTAVYYCASLASYSSGWEDVFDIWGQGTMVTVSS
VL: DIQMTQSPSSLSASVGDRVTITCRASQGISSWLAWYQQKPGKAPKLLIYDASNLETGVPSRFSGSGSGTDFTFTISSLQPEDIATYYCQQYDNLPLTFGGGTKVEIK
B3 showed a Kd in experiment [1] of 2.93 nM.

B4: Ab2001.10 (antibody, V domains shown)
VH: QVQLVQSGAEVKKPGASVKVSCKASGDTFSSFDINWVRQATGQGLEWMGWMHAGSGNAGYAQKFQGRVTMTRDTSISTAYMELSSLRSEDTAVYYCANYVPHGAFQIWGQGTMVTVSS
VL: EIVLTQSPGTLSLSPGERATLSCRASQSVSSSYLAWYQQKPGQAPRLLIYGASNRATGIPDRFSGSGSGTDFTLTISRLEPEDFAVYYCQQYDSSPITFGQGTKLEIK
B4 gave a Kd in experiment [1] of 4.21 nM.

The term Kd denotes the equilibrium constant for the complex coming apart. High values mean a looser complex, low ones a tighter complex. As usually defined, the IC50 is the midpoint of a concentration-inhibition curve.
